In US20250179210A1 (Merck KGaA, published 2025):
Like-named read-outs stand apart in the source and are kept apart here.

Key:
[1] = biological target: T1, human CEACAM5 expressed on human cancer cell lines (MKN-45, NCI-H441, SK-CO-1, SNU-16, LS174T) (human, UniProt P06731 35-685); experiment: cellular binding on MKN45 cells (FIG. 2)
T1 construct: Endogenous protein on cells; also called MKN45 cell line expressing human CEACAM5; CEACAM5-positive cell lines
T1 sequence: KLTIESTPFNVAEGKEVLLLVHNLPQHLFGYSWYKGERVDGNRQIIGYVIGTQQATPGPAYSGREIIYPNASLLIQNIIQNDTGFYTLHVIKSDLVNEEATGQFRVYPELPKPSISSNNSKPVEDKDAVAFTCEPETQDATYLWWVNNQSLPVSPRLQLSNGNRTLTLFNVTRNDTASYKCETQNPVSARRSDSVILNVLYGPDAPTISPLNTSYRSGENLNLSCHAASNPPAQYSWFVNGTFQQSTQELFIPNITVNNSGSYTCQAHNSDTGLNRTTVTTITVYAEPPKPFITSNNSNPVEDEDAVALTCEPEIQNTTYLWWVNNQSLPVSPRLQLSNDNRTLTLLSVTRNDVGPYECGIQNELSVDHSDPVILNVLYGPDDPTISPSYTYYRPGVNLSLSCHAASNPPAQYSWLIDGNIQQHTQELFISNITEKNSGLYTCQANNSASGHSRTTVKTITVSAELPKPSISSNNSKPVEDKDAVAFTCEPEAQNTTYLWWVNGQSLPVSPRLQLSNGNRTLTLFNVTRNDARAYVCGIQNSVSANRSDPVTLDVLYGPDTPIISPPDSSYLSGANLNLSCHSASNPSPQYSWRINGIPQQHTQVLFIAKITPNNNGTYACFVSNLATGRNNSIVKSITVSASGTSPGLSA

[2] = biological target: T1, human CEACAM5 expressed on human cancer …; experiment: cell-based or functional assay
[3] = biological target: T1, human CEACAM5 expressed on human cancer …; experiment: cell-based or functional assay; remark: listed apart in the source
[4] = biological target: T1, human CEACAM5 expressed on human cancer …; experiment: flow cytometry on MKN-45 cells, antibody titrated
[5] = biological target: T1, human CEACAM5 expressed on human cancer …; experiment: binding to MKN-45 cells
[6] = biological target: T1, human CEACAM5 expressed on human cancer …; experiment: cell-based or functional assay; remark: listed apart in the source
[7] = biological target: T1, human CEACAM5 expressed on human cancer …; experiment: cell-based or functional assay; remark: listed apart in the source

B1: hmn-14 (hMN14, antibody of labetuzumab govitecan) (antibody, human IgG1, kappa, V domains shown)
VH: EVQLVESGGGVVQPGRSLRLSCSASGFDFTTYWMSWVRQAPGKGLEWIGEIHPDSSTINYAPSLKDRFTISRDNAKNTLFLQMDSLRPEDTGVYFCASLYFGFPWFAYWGQGTPVTVSS
VL: DIQLTQSPSSLSASVGDRVTITCKASQDVGTSVAWYQQKPGKAPKLLIYWTSTRHTGVPSRFSGSGSGTDFTFTISSLQPEDIATYYCQQYSLYRSFGQGTKVEIKR
With B1 the EC50 [1] was 11.8 nM.

B2: ADC1-M (conjugate of mAb1-M with DL1) (antibody, human IgG1, kappa, L234A L235A)
heavy: EVQLQESGPGLVKPSQTLSLTCTVSDGSVSRGGYYLTWIRQHPGKGLEWIGYIYYSGSTYFNPSLRSRVTMSVDTSKNQFSLKLSSVTAADTAVYYCARGIAVAPFDYWGQGTLVTVSSASTKGPSVFPLAPSSKSTSGGTAALGCLVKDYFPEPVTVSWNSGALTSGVHTFPAVLQSSGLYSLSSVVTVPSSSLGTQTYICNVNHKPSNTKVDKRVEPKSCDKTHTCPPCPAPEAAGGPSVFLFPPKPKDTLYITREPEVTCVVVDVSHEDPEVKFNWYVDGVEVHNAKTKPREEQYNSTYRVVSVLTVLHQDWLNGKEYKCKVSNKALPAPIEKTISKAKGQPREPQVYTLPPSREEMTKNQVSLTCLVKGFYPSDIAVEWESNGQPENNYKTTPPVLDSDGSFFLYSKLTVDKSRWQQGNVFSCSVMHEALHNHYTQKSLSLSPG
light: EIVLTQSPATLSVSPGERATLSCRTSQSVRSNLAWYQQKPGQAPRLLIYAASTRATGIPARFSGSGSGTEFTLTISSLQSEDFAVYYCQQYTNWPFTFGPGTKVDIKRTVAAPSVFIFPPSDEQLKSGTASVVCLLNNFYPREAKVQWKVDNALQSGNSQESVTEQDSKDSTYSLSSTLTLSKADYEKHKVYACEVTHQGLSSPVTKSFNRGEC
modifications: DL1 by interchain cysteine conjugation; DL1 (maleimido-b-glucuronide-exatecan) by interchain cysteine conjugation; DAR 8.16
For B2, the “IC50 [M], cell viability assay (Cell Titer-Glo, 6 days), LS174T cells” value (from here on “IC50 [M], cell viability assay … LS174T cells”) [2] was 6e-10 M, the “IC50 [M], cell viability assay (Cell Titer-Glo, 6 days), MKN-45 cells” value (“IC50 [M], cell viability assay … MKN-45 cells” for short) [2] was 5.2e-10 M and the “IC50 [M], cell viability assay (Cell Titer-Glo, 6 days), SK-CO-1 cells” value (“IC50 [M], cell viability assay … SK-CO-1 cells” for short) [2] was 7.6e-11 M. For the same binder, the “IC50 [M], cell viability assay (Cell Titer-Glo, 6 days), SNU-16 cells” value (from here on “IC50 [M], cell viability assay … SNU-16 cells”) [2] was 3.6e-10 M, the “SPECIFICITY FACTOR (IC50 in CEACAM5-negative MDA-MB-231 divided by IC50 in MKN-45)” value [3] was 201 fold and the “SPECIFICITY FACTOR (IC50 in CEACAM5-negative MDA-MB-231 divided by IC50 in SK-CO-1)” value [3] was 874 fold. For the same binder, the “SPECIFICITY FACTOR (IC50 in CEACAM5-negative MDA-MB-231 divided by IC50 in SNU-16)” value [3] was 242 fold.

B3: ADC2-M (conjugate of mAb2-M with DL1-M) (antibody, human IgG1, kappa, L234A L235A)
heavy: EVQLQESGPGLVKPSQTLSLTCTVSDGSVSRGGYYLTWIRQHPGKGLEWIGYIYYSGSTYFNPSLRSRVTMSVDTSKNQFSLKLSSVTAADTAVYYCARGIAVAPFDYWGQGTLVTVSSASTKGPSVFPLAPSSKSTSGGTAALGCLVKDYFPEPVTVSWNSGALTSGVHTFPAVLQSSGLYSLSSVVTVPSSSLGTQTYICNVNHKPSNTKVDKRVEPKSCDKTHTCPPCPAPEAAGGPSVFLFPPKPKDTLYITREPEVTCVVVDVSHEDPEVKFNWYVDGVEVHNAKTKPREEQYNSTYRVVSVLTVLHQDWLNGKEYKCKVSNKALPAPIEKTISKAKGQPREPQVYTLPPSREEMTKNQVSLTCLVKGFYPSDIAVEWESNGQPENNYKTTPPVLDSDGSFFLYSKLTVDKSRWQQGNVFSCSVMHEALHNHYTQKSLSLSPG
light: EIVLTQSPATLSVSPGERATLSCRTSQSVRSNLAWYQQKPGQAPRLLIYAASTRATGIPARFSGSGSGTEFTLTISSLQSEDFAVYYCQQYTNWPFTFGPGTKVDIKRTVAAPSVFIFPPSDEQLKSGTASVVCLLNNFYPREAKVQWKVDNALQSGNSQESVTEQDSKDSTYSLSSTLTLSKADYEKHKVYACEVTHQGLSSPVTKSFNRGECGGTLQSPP
modifications: MTG tag GGTLQSPP at the C-terminus is a conjugation site for DL1-M; DL1-M (NH2-GGG-b-glucuronide-exatecan) coupled by microbial transglutaminase; DAR 3.86 for the whole antibody; residues carrying the drug not stated
In the case of B3, the “IC50 [M], cell viability assay … LS174T cells” value [2] is reported as 8.5e-10 M, the “IC50 [M], cell viability assay … MKN-45 cells” value [2] is reported as 1.2e-09 M and the “IC50 [M], cell viability assay … SK-CO-1 cells” value [2] is reported as 1.1e-10 M. For the same binder, the “IC50 [M], cell viability assay … SNU-16 cells” value [2] was 5.1e-09 M, the “SPECIFICITY FACTOR (IC50 in MDA-MB-231, set to 100 nM, divided by IC50 in MKN-45)” value [3] was > 167 fold and the “SPECIFICITY FACTOR (IC50 in MDA-MB-231, set to 100 nM, divided by IC50 in SK-CO-1)” value [3] was > 632 fold. The “SPECIFICITY FACTOR (IC50 in MDA-MB-231, set to 100 nM, divided by IC50 in SNU-16)” value [3] was > 207 fold.

B4: Rituximab (antibody, human IgG1, kappa, V domains shown)
VH: QVQLQQPGAELVKPGASVKMSCKASGYTFTSYNMHWVKQTPGRGLEWIGAIYPGNGDTSYNQKFKGKATLTADKSSSTAYMQLSSLTSEDSAVYYCARSTYYGGDWYFNVWGAGTTVTVSA
VL: QIVLSQSPAILSASPGEKVTMTCRASSSVSYIHWFQQKPGSSPKPWIYATSNLASGVPVRFSGSGSGTSYSLTISRVEAEDAATYYCQQWTSNPPTFGGGTKLEIKR
notes: also called mAb4-M; anti-CD20 control antibody
B4: no binding (tested: 2000 nM) [4].

B5: Variant 1 (VH1.00/VL1.00) (antibody, V domains shown)
VH: EVQLQESGPGLVKPSQTLSLTCTVSDGSVSRGGYYLTWIRQHPGKGLEWIGYIYYSGSTYFNPSLRSRLTMSVDTSKNQFSLKLSSVTAADTAVYYCARGIAVAPFDYWGQGTLVTVSS
VL: ETTLTQSPATLSVSPGERATLSCRTSQSVRSNLAWYQQKPGQAPRLLIYAASTRATGIPARFSGSGSGTEFTLTIGSLQSEDFAVYFCQQYTNWPFTFGPGTKVEIKR
notes: also called optimized antibody Variant 1
B5: binds [5].

B6: Variant 6 (VH1.02/VL1.00) (antibody, V domains shown)
VH: EVQLQESGPGLVKPSQTLSLTCTVSDGSVSRGGYYLTWIRQHPGKGLEWIGYIYYSGSTYFNPSLRSRVTMSVDTSKNQFSLKLSSVTAADTAVYYCARGIAVAPFDYWGQGTLVTVSS
VL: ETTLTQSPATLSVSPGERATLSCRTSQSVRSNLAWYQQKPGQAPRLLIYAASTRATGIPARFSGSGSGTEFTLTIGSLQSEDFAVYFCQQYTNWPFTFGPGTKVEIKR
notes: also called optimized antibody Variant 6
B6: binds [5].

B7: ADC1 (mAb1-glucuronid-exatecan) (antibody, human IgG1, kappa)
heavy: EVQLQESGPGLVKPSQTLSLTCTVSDGSVSRGGYYLTWIRQHPGKGLEWIGYIYYSGSTYFNPSLRSRVTMSVDTSKNQFSLKLSSVTAADTAVYYCARGIAVAPFDYWGQGTLVTVSSASTKGPSVFPLAPSSKSTSGGTAALGCLVKDYFPEPVTVSWNSGALTSGVHTFPAVLQSSGLYSLSSVVTVPSSSLGTQTYICNVNHKPSNTKVDKRVEPKSCDKTHTCPPCPAPPVAGPSVFLFPPKPKDTLMISRTPEVTCVVVDVSHEDPEVKFNWYVDGVEVHNAKTKPREEQYNSTYRVVSVLTVLHQDWLNGKEYKCKVSNKALPSSIEKTISKAKGQPREPQVYTLPPSREEMTKNQVSLTCLVKGFYPSDIAVEWESNGQPENNYKTTPPVLDSDGSFFLYSKLTVDKSRWQQGNVFSCSVMHEALHNHYTQKSLSLSPG
light: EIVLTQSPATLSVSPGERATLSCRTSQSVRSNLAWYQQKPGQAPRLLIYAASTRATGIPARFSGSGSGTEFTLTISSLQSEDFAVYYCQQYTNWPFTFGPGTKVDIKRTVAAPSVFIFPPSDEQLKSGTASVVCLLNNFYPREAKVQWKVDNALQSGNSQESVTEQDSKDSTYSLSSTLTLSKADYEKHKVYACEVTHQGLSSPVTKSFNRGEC
modifications: drug-linker DL1 on the reduced interchain cysteine; drug-linker DL1 (maleimido-beta-glucuronide-exatecan) on sulfur of reduced interchain cysteines; DAR 7.9 for the whole antibody
B7 was tested, and the “fold higher potency than ADC SAR DM4 against SK-CO-1 cells (viability assay)” value [6] was 2.9 fold, the “IC50 [M], cell viability assay … LS174T cells” value [7] was 3.8e-10 M and the “IC50 [M], cell viability assay … MKN-45 cells” value [7] was 6.2e-10 M. For the same binder, the “IC50 [M], cell viability assay … SK-CO-1 cells” value [7] was 8.5e-11 M and the “IC50 [M], cell viability assay … SNU-16 cells” value [7] was 3.2e-10 M.

B8: ADC2 (mAb1-AAN-exatecan) (antibody, human IgG1, kappa)
heavy: EVQLQESGPGLVKPSQTLSLTCTVSDGSVSRGGYYLTWIRQHPGKGLEWIGYIYYSGSTYFNPSLRSRVTMSVDTSKNQFSLKLSSVTAADTAVYYCARGIAVAPFDYWGQGTLVTVSSASTKGPSVFPLAPSSKSTSGGTAALGCLVKDYFPEPVTVSWNSGALTSGVHTFPAVLQSSGLYSLSSVVTVPSSSLGTQTYICNVNHKPSNTKVDKRVEPKSCDKTHTCPPCPAPPVAGPSVFLFPPKPKDTLMISRTPEVTCVVVDVSHEDPEVKFNWYVDGVEVHNAKTKPREEQYNSTYRVVSVLTVLHQDWLNGKEYKCKVSNKALPSSIEKTISKAKGQPREPQVYTLPPSREEMTKNQVSLTCLVKGFYPSDIAVEWESNGQPENNYKTTPPVLDSDGSFFLYSKLTVDKSRWQQGNVFSCSVMHEALHNHYTQKSLSLSPG
light: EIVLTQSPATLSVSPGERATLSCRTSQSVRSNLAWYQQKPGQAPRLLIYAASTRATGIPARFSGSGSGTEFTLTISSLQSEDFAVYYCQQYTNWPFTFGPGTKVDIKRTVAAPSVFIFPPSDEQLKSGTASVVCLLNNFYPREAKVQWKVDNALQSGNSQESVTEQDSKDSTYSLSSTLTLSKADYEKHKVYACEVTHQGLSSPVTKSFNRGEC
modifications: drug-linker DL2 on the reduced interchain cysteine; drug-linker DL2 (legumain-cleavable Ala-Ala-Asn linker, exatecan) on reduced interchain cysteines; DAR 7.6 for the whole antibody
For B8, the “fold higher potency than ADC SAR DM4 against SK-CO-1 cells (viability assay)” value [6] was 2.7 fold, the “IC50 [M], cell viability assay … LS174T cells” value [7] was 2.8e-10 M and the “IC50 [M], cell viability assay … MKN-45 cells” value [7] was 4.7e-10 M. For the same binder, the “IC50 [M], cell viability assay … SK-CO-1 cells” value [7] was 6.9e-11 M and the “IC50 [M], cell viability assay … SNU-16 cells” value [7] was 2.8e-10 M.
